Assay results published in patent publication EP1146896B1.
One block for each substance: values may come before it.

Experiments:
[1] = target: B29-N^ε-myristoyl-des(B30) human insulin (human) (UniProt P01308); assay: sedimentation velocity, area of the profile compared with an ideal hypothetical hexamer curve, self-association, pH 8.0 (7.97)
[2] = target: B29-N^ε-myristoyl-des(B30) human insulin (human) (UniProt P01308); assay: sedimentation velocity (DCDT Plus, single Gaussian fit), self-association, pH 8.4
[3] = target: B29-N^ε-myristoyl-des(B30) human insulin (human) (UniProt P01308); assay: sedimentation velocity (DCDT Plus, single Gaussian fit), self-association, pH 7.5; heterogeneous
[4] = target: B29-N^ε-myristoyl-des(B30) human insulin (human) (UniProt P01308); assay: sedimentation velocity (DCDT Plus, single Gaussian fit), self-association, pH 7.97
[5] = target: B28-N^ε-octanoyl-Lys^B28Pro^B29 human insulin analog (human); assay: sedimentation velocity (DCDT Plus), self-association, pH 8.0, first fit
[6] = target: B28-N^ε-octanoyl-Lys^B28Pro^B29 human insulin analog (human); assay: sedimentation velocity (DCDT Plus), self-association, pH 8.0, refined fit
[7] = target: B29-N^ε-octanoyl-Asp^B28 human insulin analog (human); assay: sedimentation velocity (DCDT Plus, two Gaussian fit), self-association, pH 8.0
[8] = target: B29-N^ε-octanoyl-Asp^B28 human insulin analog (human); assay: sedimentation velocity (DCDT Plus, two Gaussian fit), self-association, pH 7.5; the model is the 27,700 g/mole species, not hexamer
[9] = target: B29-N^ε-octanoyl-Asp^B28 human insulin analog (human); assay: sedimentation velocity (DCDT Plus, two Gaussian fit), self-association, pH 7.5; hexamer said not to be dominant
[10] = target: B28-N^ε-myristoyl-Lys^B28Pro^B29 human insulin analog (human); assay: static light scattering, self-association, pH 7.8
[11] = target: B28-N^ε-myristoyl-Lys^B28Pro^B29 human insulin analog (human); assay: sedimentation velocity, self-association, 7 mM phosphate pH 7.95 (monomer 6,018 g/mole, theoretical hexamer 36,108 g/mole)
[12] = target: B28-N^ε-myristoyl-Lys^B28Pro^B29 human insulin analog (human); assay: static light scattering, self-association, pH 8.0
[13] = target: B28-N^ε-myristoyl-Lys^B28Pro^B29 human insulin analog (human); assay: sedimentation velocity analysed with DCDT Plus, self-association, pH 8.0
[14] = target: B28-N^ε-myristoyl-Lys^B28Pro^B29 human insulin analog (human); assay: static light scattering, self-association, pH 8.3
[15] = target: B28-N^ε-myristoyl-Lys^B28Pro^B29 human insulin analog (human); assay: sedimentation velocity, self-association, 10 mM Tris pH 7.96 (monomer 6,018 g/mole, theoretical hexamer 36,108 g/mole)
[16] = target: B28-N^ε-myristoyl-Lys^B28Pro^B29 human insulin analog (human); assay: static light scattering, self-association, pH 8.5
[17] = target: B28-N^ε-myristoyl-Lys^B28Pro^B29 human insulin analog (human); assay: static light scattering, self-association, pH 7.5

percent in the hexamer association state [1]: > 92 percent | MW (g/mole) of association [2]: 39000 g/mol | MW (g/mole) of association [3]: 23000 g/mol | MW (g/mole) of association [4]: 30700 g/mol
Substance: B29-N^ε-myristoyl-des(B30) human insulin (from UniProt P01308 25-110; P01308 25-110) (ligand)

molecular weight of association [5]: 35300 g/mol | molecular weight of association [6]: 40800 g/mol | percent of data described by the hexamer model [6]: > 94%
Substance: B28-N^ε-octanoyl-Lys^B28Pro^B29 human insulin analog (ligand)

molecular weight of association [7]: 33200 g/mol | percent of data described by the hexamer model [7]: 85% | percent of data described by the model [8]: > 92% | molecular weight of association [9]: 27700 g/mol
Substance: B29-N^ε-octanoyl-Asp^B28 human insulin analog (ligand)

Mw (weight-average molecular weight of association) [10]: 60700 g/mol | Calculated MW of association [11]: 34300 g/mol | Mw (weight-average molecular weight of association) [12]: 40400 g/mol | molecular weight of association [13]: 34400 grams/mole | percent of data described by the hexamer model [13]: > 96% | Mw (weight-average molecular weight of association) [14]: 40400 g/mol | Calculated MW of association [15]: 35000 g/mol | Mw (weight-average molecular weight of association) [16]: 49100 g/mol | Mw (weight-average molecular weight of association) [17]: 127000 g/mol
Substance: B28-N^ε-myristoyl-Lys^B28Pro^B29 human insulin analog (ligand)
